Source: patent US20230227557A1 (PROMAB BIOTECHNOLOGIES, published 2023)

Molecular target: T1, PD-L1 on PD-L1-positive cancer cells and tissues (human, UniProt Q9NZQ7 19-290)
T1 construct: whole, on cells; also called PD-L1 tumor antigen; CD274
Assay: flow cytometry on cancer cell lines

T1 sequence (Q9NZQ7 19-290): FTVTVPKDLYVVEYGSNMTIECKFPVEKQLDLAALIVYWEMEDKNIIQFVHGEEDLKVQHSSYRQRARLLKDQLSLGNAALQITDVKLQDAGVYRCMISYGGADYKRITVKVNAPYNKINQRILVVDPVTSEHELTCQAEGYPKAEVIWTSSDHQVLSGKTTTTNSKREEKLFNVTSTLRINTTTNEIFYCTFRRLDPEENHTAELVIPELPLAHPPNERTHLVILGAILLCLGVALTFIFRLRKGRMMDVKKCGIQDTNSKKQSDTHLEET

B1: mouse monoclonal anti-human PD-L1 antibody (hybridoma clone 7D2A10) (antibody, V domains shown)
VH: QIQLVQSGPELKNPGETVKISCKASGYTFTNYGMNWVKQAPGKGLKWMGWINTHTGEPTYADDFKGRFAFSSETSASSAYLQINNLKNDDMATYFCAKGTHREEIPAWFAYWGQGTLVTVSA
VL: DVLMTQTPLSLPVSLGDQASISCRSSQSIVHSNGNTYLEWYLQKPGQSPELLIYKVSNLFSGVPDRFSGSGSGTDFTLKISRVEAEDLGVYYCFQGSHVPPTFGAGTKLELKR
notes: also called Promab anti-PD-L1; PD-L1 monoclonal antibody
- binding result: binds
